Laboratory results as given in patent US11795460B2, “Compositions and methods for TTR gene editing and treating ATTR amyloidosis” (Intellia Therapeutics, Inc., priority 2017, dated 2023).
Strand notation (5' to 3'): a small letter for the sugar, then the base; units joined by * are phosphorothioate-linked, units joined directly phosphodiester-linked; [ ] holds rarer units or linkages, { } end groups; capitals alone tell only the bases. m = 2'-O-methyl; r = 2'-OH (RNA)

B1: G000489: TTR sgRNA modified sequence, Human, SEQ ID No. 96; guide sequence of CR003344 (nucleic acid)
guide: mU*mU*mU*rGrArCrCrArUrCrArGrArGrGrArCrArCrUrGrUrUrUrUrArGrAmGmCmUmAmGmAmAmAmUmAmGmCrArArGrUrUrArArArArUrArArGrGrCrUrArGrUrCrCrGrUrUrArUrCrAmAmCmUmUmGmAmAmAmAmAmGmUmGmGmCmAmCmCmGmAmGmUmCmGmGmUmGmCmU*mU*mU*mU
B2: G000480: TTR sgRNA modified sequence, Human, SEQ ID No. 87; guide sequence of CR003353 (nucleic acid)
guide: mA*mA*mA*rGrGrCrUrGrCrUrGrArUrGrArCrArCrCrUrGrUrUrUrUrArGrAmGmCmUmAmGmAmAmAmUmAmGmCrArArGrUrUrArArArArUrArArGrGrCrUrArGrUrCrCrGrUrUrArUrCrAmAmCmUmUmGmAmAmAmAmAmGmUmGmGmCmAmCmCmGmAmGmUmCmGmGmUmGmCmU*mU*mU*mU
B3: G000482: TTR sgRNA modified sequence, Human, SEQ ID No. 89; guide sequence of CR003365 (nucleic acid)
guide: mU*mG*mU*rArGrArArGrGrGrArUrArUrArCrArArArGrGrUrUrUrUrArGrAmGmCmUmAmGmAmAmAmUmAmGmCrArArGrUrUrArArArArUrArArGrGrCrUrArGrUrCrCrGrUrUrArUrCrAmAmCmUmUmGmAmAmAmAmAmGmUmGmGmCmAmCmCmGmAmGmUmCmGmGmUmGmCmU*mU*mU*mU
B4: G000570: TTR sgRNA modified sequence, Human, SEQ ID No. 111; guide sequence of CR003347 (nucleic acid)
guide: mC*mA*mU*rUrGrArUrGrGrCrArGrGrArCrUrGrCrCrUrGrUrUrUrUrArGrAmGmCmUmAmGmAmAmAmUmAmGmCrArArGrUrUrArArArArUrArArGrGrCrUrArGrUrCrCrGrUrUrArUrCrAmAmCmUmUmGmAmAmAmAmAmGmUmGmGmCmAmCmCmGmAmGmUmCmGmGmUmGmCmU*mU*mU*mU
B5: G000483: TTR sgRNA modified sequence, Human, SEQ ID No. 90; guide sequence of CR005298 (nucleic acid)
guide: mU*mC*mC*rArCrUrCrArUrUrCrUrUrGrGrCrArGrGrArGrUrUrUrUrArGrAmGmCmUmAmGmAmAmAmUmAmGmCrArArGrUrUrArArArArUrArArGrGrCrUrArGrUrCrCrGrUrUrArUrCrAmAmCmUmUmGmAmAmAmAmAmGmUmGmGmCmAmCmCmGmAmGmUmCmGmGmUmGmCmU*mU*mU*mU
B6: G000571: TTR sgRNA modified sequence, Human, SEQ ID No. 112; guide sequence of CR005301 (nucleic acid)
guide: mG*mU*mC*rArCrArGrArArArCrArCrUrCrArCrCrGrUrGrUrUrUrUrArGrAmGmCmUmAmGmAmAmAmUmAmGmCrArArGrUrUrArArArArUrArArGrGrCrUrArGrUrCrCrGrUrUrArUrCrAmAmCmUmUmGmAmAmAmAmAmGmUmGmGmCmAmCmCmGmAmGmUmCmGmGmUmGmCmU*mU*mU*mU
B7: G000481: TTR sgRNA modified sequence, Human, SEQ ID No. 88; guide sequence of CR003345 (nucleic acid)
guide: mU*mC*mU*rArGrArArCrUrUrUrGrArCrCrArUrCrArGrGrUrUrUrUrArGrAmGmCmUmAmGmAmAmAmUmAmGmCrArArGrUrUrArArArArUrArArGrGrCrUrArGrUrCrCrGrUrUrArUrCrAmAmCmUmUmGmAmAmAmAmAmGmUmGmGmCmAmCmCmGmAmGmUmCmGmGmUmGmCmU*mU*mU*mU
B8: G000568: TTR sgRNA modified sequence, Human, SEQ ID No. 110; guide sequence of CR003391 (nucleic acid)
guide: mG*mG*mC*rUrGrUrCrGrUrCrArCrCrArArUrCrCrCrArGrUrUrUrUrArGrAmGmCmUmAmGmAmAmAmUmAmGmCrArArGrUrUrArArArArUrArArGrGrCrUrArGrUrCrCrGrUrUrArUrCrAmAmCmUmUmGmAmAmAmAmAmGmUmGmGmCmAmCmCmGmAmGmUmCmGmGmUmGmCmU*mU*mU*mU
B9: G000499: TTR sgRNA modified sequence, Human, SEQ ID No. 106; guide sequence of CR005303 (nucleic acid)
guide: mU*mG*mA*rArUrCrCrArArGrUrGrUrCrCrUrCrUrGrArGrUrUrUrUrArGrAmGmCmUmAmGmAmAmAmUmAmGmCrArArGrUrUrArArArArUrArArGrGrCrUrArGrUrCrCrGrUrUrArUrCrAmAmCmUmUmGmAmAmAmAmAmGmUmGmGmCmAmCmCmGmAmGmUmCmGmGmUmGmCmU*mU*mU*mU
B10: G000494: TTR sgRNA modified sequence, Human, SEQ ID No. 101; guide sequence of CR003360 (nucleic acid)
guide: mG*mU*mG*rArGrUrCrUrGrGrArGrArGrCrUrGrCrArUrGrUrUrUrUrArGrAmGmCmUmAmGmAmAmAmUmAmGmCrArArGrUrUrArArArArUrArArGrGrCrUrArGrUrCrCrGrUrUrArUrCrAmAmCmUmUmGmAmAmAmAmAmGmUmGmGmCmAmCmCmGmAmGmUmCmGmGmUmGmCmU*mU*mU*mU
B11: G000484: TTR sgRNA modified sequence, Human, SEQ ID No. 91; guide sequence of CR003367 (nucleic acid)
guide: mA*mG*mA*rCrArCrCrArArArUrCrUrUrArCrUrGrGrArGrUrUrUrUrArGrAmGmCmUmAmGmAmAmAmUmAmGmCrArArGrUrUrArArArArUrArArGrGrCrUrArGrUrCrCrGrUrUrArUrCrAmAmCmUmUmGmAmAmAmAmAmGmUmGmGmCmAmCmCmGmAmGmUmCmGmGmUmGmCmU*mU*mU*mU
B12: G000572: TTR sgRNA modified sequence, Human, SEQ ID No. 113; guide sequence of CR003385 (nucleic acid)
guide: mC*mC*mC*rCrUrArCrUrCrCrUrArUrUrCrCrArCrCrArGrUrUrUrUrArGrAmGmCmUmAmGmAmAmAmUmAmGmCrArArGrUrUrArArArArUrArArGrGrCrUrArGrUrCrCrGrUrUrArUrCrAmAmCmUmUmGmAmAmAmAmAmGmUmGmGmCmAmCmCmGmAmGmUmCmGmGmUmGmCmU*mU*mU*mU
B13: G000488: TTR sgRNA modified sequence, Human, SEQ ID No. 95; guide sequence of CR003346 (nucleic acid)
guide: mA*mA*mA*rGrUrUrCrUrArGrArUrGrCrUrGrUrCrCrGrGrUrUrUrUrArGrAmGmCmUmAmGmAmAmAmUmAmGmCrArArGrUrUrArArArArUrArArGrGrCrUrArGrUrCrCrGrUrUrArUrCrAmAmCmUmUmGmAmAmAmAmAmGmUmGmGmCmAmCmCmGmAmGmUmCmGmGmUmGmCmU*mU*mU*mU

Key:
[1] = test system: TTR; test: TTR editing in primary cyno hepatocytes electroporated with Spy Cas9 protein and sgRNAs (Tables 14, 15); assay type: cell-based, cynomolgus monkey; settings: Table 14; primary cyno hepatocytes electroporated with Spy Cas9 protein (RNP) and sgRNAs
Summary of the method: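 Spy Cas9 RNPs with boiled sgRNAs electroporated (Lonza P3 buffer, program EX-147) into primary cynomolgus hepatocytes; harvest at 24, 48 or 72 h. TTR target site PCR-amplified and sequenced on Illumina MiSeq, reads aligned to mf5; percent editing is reads with indels or substitutions over total reads.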

[2] = test system: TTR; test: EC50 and maximum editing in primary human hepatocytes treated with LNP formulated U-depleted Spy Cas9 mRNA and sgRNAs (Tables 19, 21); assay type: cell-based; set-up: key: % of sequence reads with indels or substitutions over total reads; settings: Table 19, LNP with U-depleted Spy Cas9 mRNA and human specific sgRNAs, dose response
Protocol: Primary liver hepatocytes. Primary human liver hepatocytes (PHH) and primary cynomolgus liver hepatocytes (PCH) (Gibco) were cultured per the manufacturer's protocol (Invitrogen, protocol 11.28.2012). In brief, the cells were thawed and resuspended in hepatocyte thawing medium with supplements (Gibco, Cat. CM7000) followed by centrifugation at 100 g for 10 minutes for human and 80 g for 4 minutes for cyno. The supernatant was discarded and the pelleted cells resuspended in hepatocyte plating medium plus supplement pack (Invitrogen, Cat. A1217601 and CM3000). Cells were counted and plated on Bio-coat collagen I coated 96-well plates (ThermoFisher, Cat. 877272) at a density of 33,000 cells/well for human or 60,000 cells/well for cyno (or 65,000 cells/well when assaying effects on TTR protein, described further below). Plated cells were allowed to settle and adhere for 6 or 24 hours in a tissue culture incubator at 37° C. and 5% CO2 atmosphere. After incubation cells were checked for monolayer formation and media was replaced with hepatocyte culture medium with serum-free supplement pack (Invitrogen, Cat. A1217601 and CM4000).
For LNPs prepared using the cross-flow technique, the LNPs were formed by impinging jet mixing of the lipid in ethanol with two volumes of RNA solutions and one volume of water. The lipid in ethanol is mixed through a mixing cross with the two volumes of RNA solution. A fourth stream of water is mixed with the outlet stream of the cross through an inline tee. (See WO2016010840 FIG. 2.) The LNPs were held for 1 hour at room temperature, and further diluted with water (approximately 1:1 v/v). Diluted LNPs were concentrated using tangential flow filtration on a flat sheet cartridge (Sartorius, 100 kD MWCO) and then buffer exchanged by diafiltration into 50 mM Tris, 45 mM NaCl, 5% (w/v) sucrose, pH 7.5 (TSS). Alternatively, the final buffer exchange into TSS was completed with PD-10 desalting columns (GE). If required, formulations were concentrated by centrifugation with Amicon 100 kDa centrifugal filters (Millipore). The resulting mixture was then filtered using a 0.2 μm sterile filter. The final LNP was stored at 4° C. or −80° C. until further use.
To quantitatively determine the efficiency of editing at the target location in the genome, sequencing was utilized to identify the presence of insertions and deletions introduced by gene editing.
Primers were designed around the target site within the gene of interest (e.g. TTR), and the genomic area of interest was amplified.
Additional PCR was performed per the manufacturer's protocols (Illumina) to add chemistry for sequencing. The amplicons were sequenced on an Illumina MiSeq instrument. The reads were aligned to a reference genome (e.g., the human reference genome (hg38), the cynomologus reference genome (mf5), the rat reference genome (rn6), or the mouse reference genome (mm10)) after eliminating those having low quality scores. The resulting files containing the reads were mapped to the reference genome (BAM files), where reads that overlapped the target region of interest were selected and the number of wild type reads versus the number of reads which contain an insertion, substitution, or deletion was calculated.
The editing percentage (e.g., the “editing efficiency” or “percent editing” or “indel frequency”) is defined as the total number of sequence reads with insertions/deletions (“indels”) or substitutions over the total number of sequence reads, including wild type.
Lipid nanoparticle formulations of modified sgRNAs targeting human TTR and the cyno matched sgRNA sequences were tested on primary human hepatocytes and primary cyno hepatocytes in a dose response curve. Primary human and cyno hepatocytes were plated as described in Example 1. Both cell lines were incubated at 37° C., 5% CO2 for 24 hours prior to treatment with LNPs. […]

[3] = test system: off-target integration sites; test: Off-target oligo insertion based assay in primary human hepatocytes (Table 30); assay type: cell-based; settings: TTR sgRNAs in PHH, 100 ng Cas9 mRNA, 25 nM sgRNA, 12.5 nM donor oligo
Protocol: Off-target analysis of sgRNAs targeting TTR was performed in primary human hepatocytes (PHH) as described in Example 5, with the following modifications. PHH were plated at a density of 33,000 cells per well on collagen-coated 96-well plates as described in Example 1. Twenty-four hours post plating, cells were washed with media and transfected using Lipofectamine RNAiMAX (ThermoFisher, Cat. 13778150) as described in Example 1. Cells were transfected with a lipoplex containing 100 ng Cas9 mRNA, immediately followed by the addition of another lipoplex containing 25 nM of the sgRNA and 12.5 nM of the donor oligo (0.3 μL/well). Cells were lysed 48 hours post-transfection and gDNA was extracted and analyzed as further described in Example 5. The data is graphically represented in FIG. 20.
Fewer sites were detected in PHH for every guide tested as compared to the HekCas9 cell line, with no unique sites detected in PHH alone.

Molecule | Avg % Deletion [1] | Avg % Edit [1] | Avg % Insert [1] | Max Editing [2] | # Sites in PHH [3]
B1 | 14.17% | 67.53% | 53.53% | 86.33 | 2
B2 | 0.37% | 10.20% | 9.83% | 98.69 | 2
B3 | 20.03% | 75.17% | 55.23% | 97.02 | 2
B4 |  |  |  | 98.22 | 1
B5 |  |  |  | 77.39 | 0
B6 |  |  |  | 71.28 | 1
B7 | 35.50% | 69.13% | 33.73% | 87.05 | 0
B8 |  |  |  | 95.72 | 11
B9 | 1.43% | 83.40% | 82.00% | 96.31 | 1
B10 | 2.07% | 81.53% | 79.57% | 75.70 | 0
B11 |  |  |  | 94.14 | 0
B12 |  |  |  | 97.94 | 2
B13 | 4.27% | 9.63% | 5.37% | 95.83 | 0
